# Values joined by “and” are separate entries in the source; they are usually repeats but may differ in a detail not shown here. Equal entries are not always repeated. “Also recorded” adds a separate entry of the source.
# Key:
# [1] = test system: dorsal root afferent-mediated synaptic inputs to dorsal horn neurones; experiment: whole-cell recording in spinal cord slices from Chung models: dorsal root afferent-mediated synaptic inputs (evoked EPSPs/IPSPs); format: cell-based, rat; details: for effect on dorsal root-evoked IPSPs (in words): prolactin 500 nM, 0.1 Hz and 5 Hz
# Protocol: (§1) An in vitro spinal cord slice with intact dorsal root afferents combined with single-cell whole-cell patch clamp electrophysiological recording techniques was used to assess the electrophysiological properties of the peptides having the amino acid sequence of SEQ ID NO:2, 3, 4 and 5.
# (§2) Chung model rats, aged 8 to 12 weeks, were housed in an air-conditioned room on a 12 hour light/dark cycle with food and water available ad libitum. The rats were terminally anaesthetized using isofluorane and decapitated. The vertebral column, rib cage and surrounding tissues were rapidly removed and pinned under ice-cold (<4° C.), high sucrose-containing artificial cerebrospinal fluid (aCSF) comprising: 127 mM sucrose, 1.9 mM KCl, 1.2 mM KH2PO4, 0.24 mM CaCl2, 3.9 mM MgCl2, 26 mM NaHCO3, 10 mM D-glucose and 0.5 mM ascorbic acid. A laminectomy was performed and the spinal cord and associated roots gently dissected and teased out of the spinal column and surrounding tissues. Dura and pia mater and ventral roots were subsequently removed with fine forceps and the spinal cord hemisected. Care was taken to ensure dorsal root inputs to the spinal cord were maintained. The hemisected spinal cord-dorsal root preparations were secured to a tissue slicer and spinal cord slices (400 to 450 μm thick) with dorsal roots attached were cut in chilled (<4° C.) high sucrose aCSF using a Leica VT1000s microtome.
# (§3) Slices were transferred to a small beaker containing ice cold aCSF with 127 mM NaCl, 1.9 mM KCl, 1.2 mM KH2PO4, 1.3 mM MgCl2, 2.4 mM CaCl2, 26 mM NaHCO3 and 10 mM D-glucose, and rapidly warmed to 35° C. ±1° C. in a temperature-controlled water bath over a 20 minute period, then subsequently removed and maintained at room temperature (22° C. ±2° C.) prior to electrophysiological recording. Electrophysiological recording was performed in aCSF comprising 127 mM NaCl, 1.9 mM KCl, 1.2 mM KH2PO4, 1.3 mM MgCl2, 2.4 mM CaCl2, 26 mM NaHCO3 and 10 mM D-glucose.
# Whole-cell recordings were performed at 34-35° C. from Lamina I or II neurones in the dorsal horn of the spinal cord slices using Axopatch 1D and/or Multiclamp 700B amplifies and using the “blind” version of the patch-clamp technique.
# Patch pipettes were pulled from thin-walled borosilicate glass with resistances of between 3 and 8 MS2 when filled with intracellular solution (140 mM potassium gluconate, 10 mM KCl, 1 mM EGTA-Na, 10 mM HEPES, 4 mM Na2ATP, 0.3 mM Na-GTP). The peptides of SEQ ID NOs:2, 3, 4 or 5 (LAT7771, LAT7772, LAT7773 or LAT7774) were diluted in the tissue bath at a concentration of 5 μM.
# A concentric bipolar stimulating electrode was placed appropriately either on the dorsal root or dorsal root entry zone to evoke postsynaptic potentials/currents in recorded cells (see FIG. 1). […] EPSPs/EPSCs were confirmed as monosynaptic on the basis of being characterised by a constant latency and rise-time with few failures.
# Recordings were monitored on an oscilloscope and stored on digital audio tapes for later off-line analysis. In addition, data were low-pass filtered at 2-5 kHz, (1 kHz for voltage-clamp data), digitized at 2-10 kHz and stored on a PC running pCLAMP 10 data acquisition software (Axon Instruments). Analysis of electrophysiological data was carried out using Clampfit 10 software.
# dorsal horn neurones = experiment: whole-cell patch clamp recording in spinal cord slices from Chung models of neuropathic pain: membrane properties of dorsal horn neurones; format: cell-based, rat; details: for ΔVm, change in membrane potential: prolactin 500 nM vs rest
# Source text: as §1
# The spinal nerve ligation model (Chung model) was first reported by Kim and Chung (1992; Pain, 50(3):355-63) and involves a single tight ligation of the L5 spinal nerve. […] This model has been used as a “gold standard” model for assessing the efficacy of novel compounds targeting neuropathic pain.
# Adult male Sprague-Dawley rats, 8-9 weeks old, weighing 220-250 g at the time of surgery, were purchased from Charles River UK Ltd. The animals were housed in groups of 4 in an air-conditioned room on a 12-hour light/dark cycle. Food and water were available ad libitum. They were allowed to acclimatise to the experimental environment for three days by leaving them on a raised metal mesh for at least 40 min. The baseline paw withdrawal threshold (PWT) was examined using a series of graduated von Frey hairs for 3 consecutive days before surgery and re-assessed on the 6th to 8th day after surgery and on the 12th to 14th day after surgery before drug dosing. Each rat was anaesthetized with 5% isoflurane mixed with oxygen (2L per min) followed by an intramuscular (i.m.) injection of ketamine 90 mg/kg plus xylazine 10 mg/kg. The back was shaved and sterilized with povidone-iodine. The animal was placed in a prone position and a para-medial incision was made on the skin covering the L4-6 level. The L5 spinal nerve was carefully isolated and tightly ligated with 6/0 silk suture. The wound was then closed in layers after a complete hemostasis. A single dose of antibiotics (Amoxipen, 15 mg/rat, i.p.) was routinely given for prevention of infection after surgery. The animals were placed in a temperature-controlled recovery chamber until fully awake before being returned to their home cages.
# as §2, §3
# Whole-cell recordings were performed at 34-35° C. from Lamina I or II neurones in the dorsal horn of the spinal cord slices using Axopatch 1D and/or Multiclamp 700B amplifies and using the “blind” version of the patch-clamp technique. […]
# [2] = peptide 5 μM, responding neurones
# [3] = prolactin 500 nM, control = 100
molecule,measurement,setting,value
CRIIHNNNCG [LAT7772],effect on dorsal root-evoked EPSPs / excitatory synaptic transmission (in words),"[1]; peptide 5 μM, dorsal root stimulation 0.1 Hz",suppressed dorsal root-evoked excitatory posts-synaptic potentials (EPSPs) in all neurones tested; also recorded: suppressive effect on EPSPs; also recorded: suppressed dorsal root afferent-mediated excitatory synaptic transmission
same,effect on membrane potential / postsynaptic membrane properties (in words),dorsal horn neurones; peptide 5 μM,overall had little effect on membrane potential; also recorded: small membrane depolarisation in 2 neurones; also recorded: both membrane depolarisations and hyperpolarisations; also recorded: hyperpolarisation
same,effect on neuronal input resistance (in words),dorsal horn neurones; peptide 5 μM,decrease in neuronal input resistance in all 5 neurones; also recorded: significant decrease in neuronal input resistance; also recorded: reduction in neuronal input resistance
same,"neuronal input resistance, of control",dorsal horn neurones; peptide 5 μM,60.1±12.3 % of control
same,change in neuronal input resistance,dorsal horn neurones; peptide 5 μM vs control,149.1±81.7 MS2
same,"ΔIR, change in neuronal input resistance","dorsal horn neurones; peptide 5 μM vs control, table prints control minus drug, text the magnitude",149.1 MΩ
same,"Input Resistance, mean in presence of peptide","dorsal horn neurones; peptide 5 μM, all cells",172.3 MΩ
same,neuronal input resistance in the presence of peptide,"dorsal horn neurones; peptide 5 μM, all cells",172.3±33.2 MS2
same,"Membrane Potential, mean in presence of peptide","dorsal horn neurones; peptide 5 μM, all cells, ipsilateral to injury",−58.7±4.8 mV and −58.7 mV
same,"Normalised Input Resistance, mean in presence of peptide","dorsal horn neurones; peptide 5 μM, control = 100",60.1
same,"Normalised Input Resistance, ΔIR","dorsal horn neurones; peptide 5 μM, control = 100",39.9
same,reversal potential of peptide-induced response (intersection of VI relations),"dorsal horn neurones; peptide 5 μM, individual neurones",around −78 mV and ~−55 mV and −100 mV and −60 mV and around −60 mV
same,membrane depolarisation in individual neurones,dorsal horn neurones; [2],12.7 mV
same,membrane hyperpolarisation in individual neurones,dorsal horn neurones; [2],3.5 mV and 9.9 mV
same,"Normalised Membrane Potential, mean in presence of peptide","dorsal horn neurones; peptide 5 μM, rest = 100",98.6
same,"Normalised Membrane Potential, ΔVm","dorsal horn neurones; peptide 5 μM, rest = 100",1.4
"Prolactin: native prolactin peptide (e.g., human prolactin of SEQ ID NO:30); parent prolactin protein (protein) MNIKGSPWKGSLLLLLVSNLLLCQSVAPLPICPGGAARCQVTLRDLFDRAVVLSHYIHNLSSEMFSEFDKRYTHGRGFITKAINSCHTSSLATPEDKEQAQQMNQKDFLSLIVSILRSWNEPLYHLVTEVRGMQEAPEAILSKAVEIEEQTKRLLEGMELIVSQVHPETKENEIYPVWSGLPSLQMADEESRLSAYYNLLHCLRRDSHKIDNYLKLLKCRIIHNNNC",effect on dorsal root-evoked IPSPs (in words),[1],no effect on IPSPs evoked by dorsal root stimulation in one cell
same,effect on dorsal root-evoked IPSPs (in words),[1]; listed as prolactin,little effect on dorsal root stimulated inhibitory post-synaptic potentials (IPSPs)
same,"Input Resistance, mean in presence of prolactin",dorsal horn neurones; prolactin 500 nM,637.3 MΩ
same,effect on membrane potential (in words),dorsal horn neurones; prolactin 500 nM,principally induced membrane depolarisation
same,effect on neuronal input resistance (in words),dorsal horn neurones; prolactin 500 nM,increase in neuronal input resistance
same,neuronal input resistance in the presence of prolactin,dorsal horn neurones; prolactin 500 nM,637.3±301.1 MS2
same,increase in neuronal input resistance,dorsal horn neurones; prolactin 500 nM vs control,79.0±60.5 MS2
same,"ΔIR, change in neuronal input resistance",dorsal horn neurones; prolactin 500 nM vs control,−79.0 MΩ
same,"ΔVm, change in membrane potential",dorsal horn neurones,−2.8 mV
same,"ΔVm, change in membrane potential",dorsal horn neurones; listed as prolactin,2.8±2.0 mV
same,"Membrane Potential, mean in presence of prolactin","dorsal horn neurones; prolactin 500 nM, all cells",−52.0 mV
same,"Membrane Potential, mean in presence of prolactin","dorsal horn neurones; prolactin 500 nM, all cells, listed as prolactin",−52.0±8.4 mV
same,"Normalised Input Resistance, mean in presence of prolactin",dorsal horn neurones; [3],113.9
same,"Normalised Input Resistance, ΔIR",dorsal horn neurones; [3],−13.9
same,effect on membrane potential (in words),"dorsal horn neurones; prolactin 500 nM, listed as prolactin",small membrane depolarisation in 2 neurones; also recorded: little effect on a further dorsal horn neurone; also recorded: marginal membrane depolarisation
same,reversal potential of prolactin-induced depolarisation (VI relations),"dorsal horn neurones; prolactin 500 nM, one cell",around −90 mV
same,"Normalised Membrane Potential, mean in presence of prolactin","dorsal horn neurones; prolactin 500 nM, rest = 100",95.8
same,"Normalised Membrane Potential, ΔVm","dorsal horn neurones; prolactin 500 nM, rest = 100",4.2

# Reference: patent publication US20220354929A1, “PEPTIDES AND USES THEREOF” (LATERAL IP PTY LTD, priority 2019, published 2022)
